Test results reported in the RNAGym collection of RNA variant scans (doi:10.1073/pnas.2313332121).
Fewer inactive variants are shown than the library holds.

B1: TPR 5TU (parent)
chain: GGAUCUUCUCGAUCUAACAAAAAAGACAAAUCUGCCACAAAGCUUGAGAGCAUCUUCGGAUGCAGAGGCGGCAGCCUUCGGUGGCGCGAUAGCGCCAACGUUCUCAACUAUGACACGCAAAACGCGUGCUCCGUUGAAUGGAGUUUAUCAUG

Variants of: B1
Assay: polymerase ribozyme fitness, log enrichment relative to wild type (log ratio); higher = more active; in vitro selection for triplet polymerase activity
Method in brief: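 Both subunits of a heterodimeric triplet polymerase ribozyme were given their own mutant library, built by PCR and transcribed. Each library was annealed with a biotinylated primer, the partner subunit and triplets, incubated frozen at −7 °C, and its extended constructs gel-excised, captured on streptavidin beads and amplified by RT-PCR, all in one round done in triplicate. Fitness is the logarithm of genotype enrichment relative to wild-type enrichment, with replicates averaged by inverse-variance weighting. That logarithm is base 2, and Illumina-sequenced genotypes needed ≥10 input reads and ≥1 read per output.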

| Variant | polymerase ribozyme fitness (log ratio) |
| --- | --- |
| C54U A89G C95A U148G | -4.18 |
| A16C U55A | -1.28 |
| U44A U53G G67A U78A G81C G88A G92C A138U | ≤ -4.2 |
| G80A C93U U102A | -3.01 |
| U77C A91U U146A | ≤ -4.2 |
| A3G A21C A60G C76A C85G | -0.977 |
| A23G G50C G86C A89G G92U A97U G141C | ≤ -4.2 |
| G48C C76A U90G U130G | ≤ -4.2 |
| C18G A49U A119G | -1.83 |
| G65U A73G G141A | ≤ -4.2 |
| U55A C69U G136A | -3.04 |
| A49C G50C U53A C79A A137U | ≤ -4.2 |
| C5G A20C G48C U56A G62A | -4.11 |
| G70A G141A | -3.46 |
| C87A A91G | ≤ -4.2 |
| C35A G81U A97U A98U | -3.76 |
| C57G C95U | -1.18 |
| A16C G25U C36U G59C C93U U104G G140C | ≤ -4.2 |
| A17U A39C A60C G86C C87A | ≤ -4.2 |
| C14G A21U A30U U31C | ≤ -4.2 |
| C105G A138G | -3.88 |
| U9G U15G C27G U31A C38A A66C G67A C87U C99G G143C | ≤ -4.2 |
| U45G A52U | -3.15 |
| U4A A12U G80U G81U G92C | -0.513 |

| Variant | polymerase ribozyme fitness (log ratio) |
| --- | --- |
| U4A C51U G94C A98U | -1.63 |
| G11A C35U C51U U61G C63U A64C C85G U90G G140A | ≤ -4.2 |
| C54A G94U C123G C125A U134C | -3.75 |
| A3G U82G C96U U148A | -4.17 |
| U4C C5U A12C G25C A40U G58C G133U | ≤ -4.2 |
| U9G C27G A28C A47U G70A A91C | ≤ -4.2 |
| C14A U55A | -1.9 |
| C18G C38A C93U C105U A113C | -4.17 |
| G86C C114U | -3.9 |
| C69A A91G | -3.81 |
| C14G U15G C18G U55G G68A | ≤ -4.2 |
| C57U C75U | 0.237 |
| U44C G59U G92A U135A | ≤ -4.2 |
| A47G A49C A52G G81U G83C U134A | ≤ -4.2 |
| A49G G140C | -3.88 |
| A24U G80U | -0.195 |
| A47C A89G C118A G133U | ≤ -4.2 |
| C54U G58C C85A | -2.42 |
| A17C C36U A47G C54A C85A C118A U127G U134C U151A | ≤ -4.2 |
| U55A A73U C75U C93U G100A U139A U144G | ≤ -4.2 |
| C43A A49U G74A G86C C93A C105U U144A | ≤ -4.2 |
| C79A C103G | ≤ -4.2 |
| A3G A23U C85A A106U G133U G143U | ≤ -4.2 |
| A41C G58A | 0.163 |

| Variant | polymerase ribozyme fitness (log ratio) |
| --- | --- |
| C38G U146C | -0.518 |
| G59A G88U | -3.96 |
| A3U U61G C95U | -1.39 |
| A24U G80U C123G U146G | -1.39 |
| C93G C108U | -3.94 |
| A3U U6A A39G C96G G124U G141A | -3.93 |
| G83C C118U | -1.34 |
| G58C G83C G117C C131U | -0.976 |
| C32A C69G A98U | -1.51 |
| A30G U77C G84C G86U U102A C118U | ≤ -4.2 |
| G83A G88U C125A G152U | ≤ -4.2 |
| G46C G136A | -0.148 |
| G50C C76U | -1.88 |
| C87U G92C | -0.38 |
| U82A C125A | -0.504 |
| G84A A97G | -2.34 |
| A3C A12G G25C A52C C93U C116A | -3.91 |
| U4A G48C C75A C99A U135C A150C | ≤ -4.2 |
| C51U A52G | -1.18 |
| A89U | -0.292 |
| A97G C131A | -2.32 |
| G42U C108U C125U A138U U148A | -4.13 |
| C35G C51G U56G G70A C76G C85G G133U | ≤ -4.2 |
| A19U C69G C72U G84A | -3.03 |

| Variant | polymerase ribozyme fitness (log ratio) |
| --- | --- |
| C51G U56A | -2.67 |
| G46C C75U G88A A106U C116G | ≤ -4.2 |
| A20G A22U G141A | -1.8 |
| G141U G143A | -2.79 |
| C57A G100C | ≤ -4.2 |
| U56A C69G U148A | -4.17 |
| C75A C103G | ≤ -4.2 |
| U6C A73U G84A G100U G124A C125G U145G | ≤ -4.2 |
| A29G C35G G84C G100A | ≤ -4.2 |
| C8A U56A A60U C93A U109G A113U U139G U145C A147G | ≤ -4.2 |
| A21G A30G A89C | ≤ -4.2 |
| C14A A29U C96A U101G G133C U144C | ≤ -4.2 |
| C57U C85A G133C G136A | -1.86 |
| A20C U56G G92U | -0.962 |
| U6G A121U | -0.506 |
| A21U C38U C95U A106U U144C | -2.96 |
| U56A A91G C95U C105G A120G | -3.49 |
| C63U U102A U104G G124A | -2.05 |
| C27U C57A C95U | -2.1 |
| C51U C54U C85A A98U | -2.81 |
| A20C G62A G86U | -2.06 |
| A29C G65A C108U C116G C125A U146G A150G | ≤ -4.2 |
| A22C C114A | -3.5 |
| G58U U135C | -1.62 |

| Variant | polymerase ribozyme fitness (log ratio) |
| --- | --- |
| G84U G117A | -2 |
| A22C A23G A49C A66G A113U | ≤ -4.2 |
| U7G C35A A40G U77C A150U | ≤ -4.2 |
| A3U C96G | -1.47 |
| C93G A97U | -3.39 |
| A52C U55A G74U G88U G92U C105G A107G | ≤ -4.2 |
| C10U A64C A89C G117C A137C | ≤ -4.2 |
| A3G C32G C35U A49C G50C C85A C103U C118G | ≤ -4.2 |
| U9G A19C U55A | ≤ -4.2 |
| U77A U90A G133U A142C | ≤ -4.2 |
| G11C A20U G86C C99G G136C U145G A147C | ≤ -4.2 |
| A23C C38A C51U U55C A73G G92U C131U A138C | ≤ -4.2 |
| A37C G92C G124C | -2.65 |
| G84C A115C C116U | -3.98 |
| A39U U101C U144G | -2.52 |
| U56G G68C C85A C114A | ≤ -4.2 |
| G50A A150U | -1.41 |
| C10U U45A C54A G71C G136U | ≤ -4.2 |
| C51U C93U | -2.53 |
| U33G A39C C54U | -3.84 |
| A17U A110U | ≤ -4.2 |
| G62C G94C | -2.03 |
| A52C C57U G133U | ≤ -4.2 |
| C10U U53C U55A G86A G88C | ≤ -4.2 |

| Variant | polymerase ribozyme fitness (log ratio) |
| --- | --- |
| G59C A106U | -0.917 |
| C57A U82G G84U C95A | -0.701 |
| U7C A19U C35U A37G U55G C76G G86A G88U C103G G124A | ≤ -4.2 |
| A19C U45A G67A | ≤ -4.2 |
| A24U A28C G59C G86C A122U G133C | ≤ -4.2 |
| A40C G50A C72U U78C C87U | ≤ -4.2 |
| C76U A91U | -4.13 |
| C75U G92U G112C A113U C114G | ≤ -4.2 |
| G58A C75U | -1.82 |
| U9C A66G C76G G92U C114A | ≤ -4.2 |
| G50C A119U | -3.92 |
| U15G C51A A52C C69U C85A | ≤ -4.2 |
| U6G G81C A91G | -2.46 |
| C36U A66G G112A A142U | ≤ -4.2 |
| C54U U146G | -0.826 |
| A21U C96A | -0.443 |
| A41G U55A C93U | -0.68 |
| C5G C8U A28C U33A U44A C85U U90A U139C | ≤ -4.2 |
| A21G U56C C93U | -0.835 |
| U82G G86U | -1.46 |
| A17G C35U U53A G94A | -1.28 |
| A39G G80U C95U C116G | -3.6 |
| G34C A66G G86U A107C G141U | ≤ -4.2 |
| A22U A115C | -0.374 |

| Variant | polymerase ribozyme fitness (log ratio) |
| --- | --- |
| A21U C93U U144C | -0.648 |
| U9G G25C A47G C87A G92U C114A | ≤ -4.2 |
| C36U C38U G83A A121U | -1.34 |
| U31A U56A U127C | -1.37 |
| A29C G50U G81A C95A G133U | ≤ -4.2 |
| C8U A16U A49C A73C C85U C108G | ≤ -4.2 |
| A22U G81A A106C G128A U139C | -3.92 |
| U55G G84A A89U C103U | -1.64 |
| A3U A30G C35G A39U G59A A60C C87U U134A | ≤ -4.2 |
| U13A C38U | -0.321 |
| U56A G83C C87U A89C C108U U144C | ≤ -4.2 |
| G48U G94A U151C | ≤ -4.2 |
| U15G A22U U53A A121C A147C | 0.0126 |
| G25C G83U | -2.85 |
| G62C C63A C116G | -1.77 |
| C32U G88A U145G | ≤ -4.2 |
| C36G C87G A91C A98U C114U A119U A122G | ≤ -4.2 |
| C76A C103U U134A | -4.15 |
| A19C A21C C35U G59U C75U | -1.16 |
| A40C C57A U139C | -3.43 |
| U111C G117U | -4.09 |
| C38U A40C G81A A91G C125G | -3.83 |
| C32G A41U A91U A107G C125G U135C | ≤ -4.2 |
